Results: article PMC7310041

Target: microtubules (paclitaxel-stabilised polymerised tubulin) (human (endogenous in HEK293T)) (UniProt P68363)
Assay: co-sedimentation; cell-based MT binding assay: lysate of transfected HEK293T cells in PEM buffer (80 mM PIPES pH 6.8, 1 mM EGTA, 1 mM MgCl2) with 0.1% Triton X-100, 2 mM GTP, 20 uM paclitaxel; 37 °C 30 min; 100,000 g 30 min; tau in supernatant and pellet by Western blot; percent MT-bound = pellet/(supernatant+pellet)*100

UniProt P68363, sequence (P68363 whole entry, chain 1 of 2): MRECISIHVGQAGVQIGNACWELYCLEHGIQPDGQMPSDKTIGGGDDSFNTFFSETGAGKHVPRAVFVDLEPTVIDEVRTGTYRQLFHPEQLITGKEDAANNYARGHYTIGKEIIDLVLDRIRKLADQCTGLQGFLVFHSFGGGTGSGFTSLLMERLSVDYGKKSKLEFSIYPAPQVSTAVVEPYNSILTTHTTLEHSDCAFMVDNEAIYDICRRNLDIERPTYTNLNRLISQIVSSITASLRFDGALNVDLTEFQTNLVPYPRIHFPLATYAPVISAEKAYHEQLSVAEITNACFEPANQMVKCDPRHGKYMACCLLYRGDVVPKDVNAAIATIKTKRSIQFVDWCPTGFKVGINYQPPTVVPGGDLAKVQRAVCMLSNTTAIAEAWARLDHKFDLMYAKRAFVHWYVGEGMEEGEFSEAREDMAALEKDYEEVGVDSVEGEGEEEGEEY
UniProt P68363, sequence (P07437 whole entry, chain 2 of 2, further chain): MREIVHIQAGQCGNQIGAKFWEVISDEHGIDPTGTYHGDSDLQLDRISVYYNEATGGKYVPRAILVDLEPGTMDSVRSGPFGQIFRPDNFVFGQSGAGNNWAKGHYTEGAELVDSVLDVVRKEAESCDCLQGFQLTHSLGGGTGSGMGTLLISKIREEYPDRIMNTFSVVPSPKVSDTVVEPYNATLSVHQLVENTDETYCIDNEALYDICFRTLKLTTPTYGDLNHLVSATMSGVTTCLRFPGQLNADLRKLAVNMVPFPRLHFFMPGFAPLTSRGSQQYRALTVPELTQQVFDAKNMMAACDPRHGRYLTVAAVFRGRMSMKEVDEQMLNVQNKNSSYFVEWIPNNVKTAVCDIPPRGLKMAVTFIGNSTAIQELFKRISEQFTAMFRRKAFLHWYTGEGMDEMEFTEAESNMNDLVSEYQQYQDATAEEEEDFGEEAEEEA

- percent of tau bound to MTs: 41%
Substance: 2N4R human tau S208E phosphomimetic (from UniProt P10636-8 1-441) (natural protein)
